Experimental data as given in article PMC12383261, “Mechanistic adaptation of the metazoan RabGEFs Mon1-Ccz1 and Fuzzy-Inturned” (Science Advances, 2025).

T1: HsInturned (human Inturned) (human, UniProt Q9ULD6 1-942)
T1 construct: Inturned, human; the N-terminal PDZ domain is not visible in the map; also called FLAG-Inturned; source: Spodoptera frugiperda 21 cells (biGBac), coexpressed with Fuzzy and Rab23^N121I, purified (glutathione agarose, SEC)
T1 sequence: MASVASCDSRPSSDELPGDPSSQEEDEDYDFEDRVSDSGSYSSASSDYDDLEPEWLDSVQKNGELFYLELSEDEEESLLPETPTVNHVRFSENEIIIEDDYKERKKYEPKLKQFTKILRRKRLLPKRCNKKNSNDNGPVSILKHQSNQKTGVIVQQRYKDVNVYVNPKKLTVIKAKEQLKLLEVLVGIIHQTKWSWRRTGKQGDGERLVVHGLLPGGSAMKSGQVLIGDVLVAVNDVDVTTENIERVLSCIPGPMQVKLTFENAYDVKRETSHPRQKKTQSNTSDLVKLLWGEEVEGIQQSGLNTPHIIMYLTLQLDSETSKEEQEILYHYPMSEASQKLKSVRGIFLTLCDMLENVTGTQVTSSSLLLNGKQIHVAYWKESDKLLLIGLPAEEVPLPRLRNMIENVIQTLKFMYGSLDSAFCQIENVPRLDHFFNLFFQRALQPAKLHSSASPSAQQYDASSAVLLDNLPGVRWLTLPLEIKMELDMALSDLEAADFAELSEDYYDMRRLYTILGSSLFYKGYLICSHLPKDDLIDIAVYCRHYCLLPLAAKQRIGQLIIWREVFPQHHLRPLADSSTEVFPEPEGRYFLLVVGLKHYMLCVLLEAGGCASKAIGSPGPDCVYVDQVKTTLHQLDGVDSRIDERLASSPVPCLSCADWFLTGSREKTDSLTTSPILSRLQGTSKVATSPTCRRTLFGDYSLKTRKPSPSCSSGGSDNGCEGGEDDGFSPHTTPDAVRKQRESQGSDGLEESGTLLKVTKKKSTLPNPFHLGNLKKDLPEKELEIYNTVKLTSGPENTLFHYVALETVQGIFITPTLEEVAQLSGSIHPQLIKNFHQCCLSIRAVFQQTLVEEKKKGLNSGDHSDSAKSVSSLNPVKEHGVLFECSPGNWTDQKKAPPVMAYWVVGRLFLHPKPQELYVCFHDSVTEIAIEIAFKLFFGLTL

T2: Fuzzy^LD1-Inturned^LD1 catalytic core complex (human)
T2 sequence (Q9BT04 whole entry, looked up): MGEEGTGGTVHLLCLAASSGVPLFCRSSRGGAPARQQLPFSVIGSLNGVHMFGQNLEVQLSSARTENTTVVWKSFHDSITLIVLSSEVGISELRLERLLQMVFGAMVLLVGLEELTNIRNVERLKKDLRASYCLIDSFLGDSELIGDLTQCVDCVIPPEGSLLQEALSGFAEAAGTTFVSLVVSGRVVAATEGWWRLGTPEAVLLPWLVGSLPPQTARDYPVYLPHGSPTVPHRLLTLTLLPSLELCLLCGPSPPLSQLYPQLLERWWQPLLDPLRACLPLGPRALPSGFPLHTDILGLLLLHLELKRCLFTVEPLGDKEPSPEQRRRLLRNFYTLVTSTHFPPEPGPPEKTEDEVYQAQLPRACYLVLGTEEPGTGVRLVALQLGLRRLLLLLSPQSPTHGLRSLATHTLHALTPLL
T2 sequence (Q9ULD6 whole entry, looked up): T1 sequence

T3: HsFuzzy-Inturned complex (cryo-EM sample) (human, UniProt Q9BT04 2-418; Q9ULD6 1-942)
T3 construct: Fuzzy, human; as m5; Inturned, human; as m6; Heterodimer of m5 and m6; seen alone and with Rab23^N121I in the same cryo-EM sample; also called dimeric Fuzzy-Inturned complex; source: Spodoptera frugiperda 21 cells (biGBac), coexpressed, purified (glutathione agarose, SEC)
T3 sequence 1: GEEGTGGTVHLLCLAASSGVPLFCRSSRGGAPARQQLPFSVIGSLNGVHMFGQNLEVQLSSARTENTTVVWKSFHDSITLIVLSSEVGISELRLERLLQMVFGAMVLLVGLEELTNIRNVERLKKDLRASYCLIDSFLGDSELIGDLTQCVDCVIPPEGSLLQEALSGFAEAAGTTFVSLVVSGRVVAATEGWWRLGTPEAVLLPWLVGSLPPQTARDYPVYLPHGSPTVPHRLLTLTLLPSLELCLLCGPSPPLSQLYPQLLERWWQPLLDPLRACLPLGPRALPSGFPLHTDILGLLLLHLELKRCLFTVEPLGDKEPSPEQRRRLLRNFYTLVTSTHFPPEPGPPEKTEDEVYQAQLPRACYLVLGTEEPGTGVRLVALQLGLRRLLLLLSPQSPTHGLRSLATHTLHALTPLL
T3 sequence 2: T1 sequence

B1: HsFuzzy (human Fuzzy) (natural protein)
chain: T3 sequence 1
notes: Fuzzy, human; also called His-SUMO-Fuzzy; source: Spodoptera frugiperda 21 cells (biGBac), coexpressed with Inturned and Rab23^N121I, purified (glutathione agarose, SEC)
B2: Rab23^I33A/T35A (natural protein)
chain: MLEEDMEVAIKMVVVGNGAVGKSSMIQRYCKGAFAKDYKKTIGVDFLERQIQVNDEDVRLMLWDTAGQEEFDAITKAYYRGAQACVLVFSTTDRESFEAVSSWREKVVAEVGDIPTVLVQNKIDLLDDSCIKNEEAEALAKRLKLRFYRTSVKEDLNVNEVFKYLAEKYLQKLKQQIAEDPELTHSSSNKIGVFNTSGGSHSGQNSGTLNGGDVINLRPNKQRTKKNRNPFSSCSIP
B3: HsRab23^N121I (nucleotide-free mutant of human Rab23) (natural protein)
chain: LEEDMEVAIKMVVVGNGAVGKSSMIQRYCKGIFTKDYKKTIGVDFLERQIQVNDEDVRLMLWDTAGQEEFDAITKAYYRGAQACVLVFSTTDRESFEAVSSWREKVVAEVGDIPTVLVQIKIDLLDDSCIKNEEAEALAKRLKLRFYRTSVKEDLNVNEVFKYLAEKYLQKLKQQIAEDPELTHSSSNKIGVFNTSGGSHSGQNSGTLNGGDVINLRPNKQRTKKNRNPFSSCSIP
notes: Rab23, human; also called GST-Rab23^N121I; source: Spodoptera frugiperda 21 cells (biGBac), coexpressed with Fuzzy and Inturned, purified (glutathione agarose, SEC); not shown: GST, N-terminal, cleaved

Assays:
[1] = molecular target: T1, HsInturned (human Inturned); assay: cryo-EM structure; HsFuzzy, HsInturned and HsRab23^N121I coexpressed in insect cells, complex purified; ~0.7 mg/ml; 0.002% lauryl maltose neopentyl glycol on grid; dimeric and trimeric particles in one sample; 50 mM tris, 200 mM NaCl, 0.5 mM TCEP, 1 mM MgCl2 (pH 8); conditions: both partners purified
[2] = molecular target: T2, Fuzzy^LD1-Inturned^LD1 catalytic core complex (human)
HsFuzzy (human Fuzzy) = molecular target: B1; assay: cryo-EM structure; HsFuzzy, HsInturned and HsRab23^N121I coexpressed in insect cells, complex purified; ~0.7 mg/ml; 0.002% lauryl maltose neopentyl glycol on grid; dimeric and trimeric particles in one sample; 50 mM tris, 200 mM NaCl, 0.5 mM TCEP, 1 mM MgCl2 (pH 8); conditions: both partners purified
[3] = molecular target: T3, HsFuzzy-Inturned complex (cryo-EM …); assay: as above; conditions: both partners purified

Row | Binder | binding result [1] | stimulation of nucleotide exchange (MANT-GDP release) of Rab23^I33A/T35A by Fuzzy^LD1-Inturned^LD1, against Rab23 WT [2] [fold] | binding result (HsFuzzy (human Fuzzy)) | binding result [3]
1 | B1 | binds | – | – | –
2 | B2 | – | 5 | – | –
3 | B3 | binds | – | binds | binds
